In US20210301020A1 (Amgen, published 2021):
Where a chain is given by its changes, count along the chain named.

Tests used:
[1] = target: human LILRB1 expressed on cells (Jurkat reporter cells; primary human cells; human CD8+ T cells) (human) (UniProt Q8NHL6); test: flow cytometry, control on LILRB1 expressed by primary human cells
[2] = target: T1, Recombinant human LILRB1 (R&D Systems) (human, UniProt Q8NHL6 24-458, limits assumed); test: BLI, ForteBio Octet HTX, antibody captured by anti-human Fc on SA sensors, soluble LILRB1 as analyte, 25 C, 1:1 model
T1 construct: Soluble analyte in the Octet assay
T1 sequence (Q8NHL6 24-458 limits assumed): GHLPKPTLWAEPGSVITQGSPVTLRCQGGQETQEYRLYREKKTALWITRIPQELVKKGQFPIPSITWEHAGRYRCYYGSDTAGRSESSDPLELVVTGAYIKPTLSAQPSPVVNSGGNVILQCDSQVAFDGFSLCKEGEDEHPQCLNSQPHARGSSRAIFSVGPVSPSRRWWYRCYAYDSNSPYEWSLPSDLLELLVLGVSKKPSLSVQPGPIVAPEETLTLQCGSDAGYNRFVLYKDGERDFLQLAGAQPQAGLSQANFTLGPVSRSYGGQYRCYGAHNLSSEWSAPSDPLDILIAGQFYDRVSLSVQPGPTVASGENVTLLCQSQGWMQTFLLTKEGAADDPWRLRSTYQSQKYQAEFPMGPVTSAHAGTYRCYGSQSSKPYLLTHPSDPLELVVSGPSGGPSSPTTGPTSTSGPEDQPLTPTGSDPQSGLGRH
Procedure: Affinity was measured on ForteBio Octet HTX (Molecular Devices) using SA biosensors (cat 18-5010) using assay buffer comprised of 10 mM Tris, 0.1% TritonX, 150 mM NaCl, 1 mM CaCl₂), 1 mg/mL BSA, pH 7.4. Assay was conducted at 25° C. and 1:1 model was used to fit the curves. Biotinylated goat anti-human Fc at 0.75 ug/mL was captured on SA sensors and antibodies as unpurified but quantified hybridoma supernatant were loaded on the sensor at 2 ug/mL for 600 seconds. Recombinant human LILRB1 (R&D Systems) titrated 1:2 from 25 nM was allowed to bind for 5 minutes, then dissociation was measured for 20 minutes.

[3] = target: human LILRB1 expressed on cells (Jurkat reporter cells; primary human cells; human CD8+ T cells) (human) (UniProt Q8NHL6); test: flow cytometry, hybridoma supernatant on LILRB1 expressed by primary human cells
[4] = target: human LILRB1 expressed on cells (Jurkat reporter cells; primary human cells; human CD8+ T cells) (human) (UniProt Q8NHL6); test: cell-based or functional assay

## Isotype control (Table 2) (antibody)
[1]
  FACS GeoMean test 2: 359
  FACS GeoMean, test 1: 73

B1: anti-LILRB1 antibody 3C1 (antibody, human IgG4, lambda, V domains shown)
VH: EVQLVESGGGLVQPGGSLRLSCAASGFTFSDYDMHWVRQATGKGLEWVATIDTAGDTYYPDSVRGRFTISRENAKNSLSLQMNSLRAGDTAVYFCARDVPGTGFDHWGQGTLVTVSS
VL: SSELTQDPAVSVALGQTVRITCQGDSLRSYYESWYQQKPGQAPVLVIYGKNNRPSGIPDRFSGSISGNTASLTITGTQAEDEADYYCNSRDNSGDHWVFGGGTRLTVLG
notes: Fully human antibody from XENOMOUSE XMG4-K/XMG4-KL mice, tested as hybridoma supernatant
[2]
  Kd: 0.168 nM
  koff: 0.000247 s⁻¹
  kon: 1.47e+06 M⁻¹ s⁻¹
[3]
  FACS GeoMean, test 1: 1750
[4]
  Potency (nM), n = 1: 0.04 nM
  Potency (nM), n = 2: 0.024 nM

B2: anti-LILRB1 antibody 19D6 (antibody, V domains shown)
VH: EVQLVESGGGLVQPGESLRLSCAASGFTFSDYDMHWVRQATGKGLEWVSAIDTAGDTYYLGPVKGRFTISRENAKNSLFLHMNSLRVGDTAVYYCIRDSGSSFDYWGQGTLVTVSS
VL: B1 VL with S1T, S29N, I65S, T73I, N88M, N92S, D95N, R104K, L105V
notes: Fully human antibody from XENOMOUSE mice, tested as hybridoma supernatant
[2]
  Kd: 0.176 nM
  koff: 0.000206 s⁻¹
  kon: 1.17e+06 M⁻¹ s⁻¹
[3]
  FACS GeoMean test 2: 2540
[4]
  Potency (nM), n = 1: 0.084 nM
  Potency (nM), n = 2: 0.095 nM

B3: anti-LILRB1 antibody 30A10 (antibody, V domains shown)
VH: QVQLVESGGGVVQPGRSLRLSCAASGFTFSSYAMHWVRQAPGKGLEWVAIIWFDGSQRYYADSVKGRFTISRDNSRDTLYLQMNSLRAEDTAVYYCARDELTGFDYWGQGTLVTVSS
VL: DIQMTQSPSSLSASVGDRVTISCRASQNIINFLNWYQQKPGKAPKVLIDAASSLRSGVPSRFSGSGSETDFSLTISSLQPEDFATYYCQQSFSTPLTFGGGTKVEIRR
notes: as for B2
[2]
  Kd: 0.103 nM
  koff: 0.00012 s⁻¹
  kon: 1.17e+06 M⁻¹ s⁻¹
[3]
  FACS GeoMean test 2: 2540
[4]
  Potency (nM), n = 1: 0.062 nM
  Potency (nM), n = 2: 0.042 nM
